In assay [1] the target is T1, peptide 23 (33 mer, full length of the 2nd extracellular loop of hC5aR) (human, N-terminal biotin).
T1 construct: also called peptide no; 23
T1 peptide: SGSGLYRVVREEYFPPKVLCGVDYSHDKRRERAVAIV
Put plainly: peptide ELISA, biotin peptide on streptavidin plate. The text has this:
A set of 22 overlapping peptides (12 mers), each offset by 1 residue from the next, spanning the second extracellular loop (3rd extracellular domain) of human C5aR was synthesised (Mimotopes, Melbourne). Each peptide was made with a biotin group and 4-amino acid linker (SGSG) at its N-terminus. One peptide synthesised, no. 23, was a 33 mer, representing the full length of the 2nd extracellular loop of hC5aR (residues 173-205 from SEQ ID NO:37), also had biotin-SGSG at the N-terminus.
The experiment was conducted by binding the peptides to a 384-well streptavidin-coated plate then incubating the antibodies with the peptides and detecting bound antibody with an anti-mouse IgG conjugated to horse radish peroxidase (HRP) as follows. Each peptide was dissolved in 200 μl of 60% DMSO to a concentration of 10 mg/ml. Peptides were further diluted 1:1000 to a working strength of 10 μg/ml with PBS/Tween 20/azide solution (0.1% w/v sodium azide in PBS/0.05% Tween 20).
A 384 well streptavidin-coated plate (Nunc) was blocked with 20 μl of blocking buffer (1% w/v BSA in PBS) per well. The plate was washed 4 times with PBS/Tween20 buffer (0.1% v/v Tween 20 in PBS). 20 μl of diluted peptide solution was transferred into a well and the plate incubated for 1 hour at room temperature. After washing the plate 4 times (as above) 20 μl antibody (0.5, 1, 1.25, 2.5 or 5 μg/ml) was added to the well and the plate was incubated for 1 hour at 20° C. The plate was washed 4 times as above then 20 μlHRP-conjugated anti-mouse IgG (1:5000 dilution in PBS/Tween 20) was added to each well. After a 1 hour incubation at room temperature the plate was washed 3 times (as above) then twice with PBS to remove traces of Tween. The presence of peroxidase was detected by adding 20 μl of freshly prepared TMB Substrate reagent (BD Opt EIA) to each well and incubating at room temperature for 20 min. Finally the plate was read at 650 nm/450 nm.
A general note: ELISA stands for enzyme-linked immunosorbent assay.

Assay [2] addresses T2, human C5a receptor (human, UniProt P21730 1-350).
T2 construct: On human neutrophils, L1.2/hC5aR transfectants or neutrophils of hC5aR knock-in mice; also called hC5aR; C5aR1
T2 chain: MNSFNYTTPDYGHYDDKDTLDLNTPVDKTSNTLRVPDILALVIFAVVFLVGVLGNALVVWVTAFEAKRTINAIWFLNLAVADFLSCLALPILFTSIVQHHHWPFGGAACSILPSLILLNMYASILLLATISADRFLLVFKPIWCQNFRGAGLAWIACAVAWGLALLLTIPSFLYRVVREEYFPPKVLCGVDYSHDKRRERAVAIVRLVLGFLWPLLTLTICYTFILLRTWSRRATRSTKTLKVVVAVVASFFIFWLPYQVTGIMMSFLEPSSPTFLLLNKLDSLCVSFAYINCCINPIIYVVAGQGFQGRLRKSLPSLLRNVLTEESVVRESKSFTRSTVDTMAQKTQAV
Kind of assay: flow cytometry of bound hAb-Q (anti-hIgG-FITC) on human neutrophils, pre-chemotaxis samples. As to the method: The FACSCalibur flow cytometer was set up with compensation parameters established for channel FL-1. Samples were acquired to exclude dead cells and debris. Neutrophils were identified based on FSC and SSC. The level of bound hAb-Q (anti-hIgG-FITC) or free C5aR (hAb-Q-FITC) was determined by determining the FITC (FL-1) mean fluorescence intensity (MFI) of the neutrophils in a sample.
Four experiments were carried out. Briefly, purified neutrophils isolated from the venous blood of a healthy volunteer were preincubated for 10 min with hAb-Q at concentrations ranging from 0.001 to 100 μg/ml. A small aliquot of this mix was taken to determine the amount of antibody bound receptor (% receptor occupancy) and the remainder was placed in the upper chamber of a transwell plate. C5a (10 nM) was placed in the lower chamber. After 30 min incubation, the number of cells that had migrated into the lower chamber was determined using FACS. The amount of bound antibody on the neutrophils in both the lower and upper chambers at the end of migration was also determined, using FITC-labelled anti-hIgG and flow cytometry. The level of free receptor (no bound antibody) was determined in one experiment by incubating the neutrophils with FITC-labelled hAb-Q before and after migration.

Assay [3] has as its target T2, human C5a receptor. Kind of assay: PK/PD model (NONMEM) fitted to serum concentration and receptor occupancy in hC5aR transgenic mice, toxicology study column. The text has this: NONMEM VI (non-linear mixed effects modelling software) with first order conditional estimation (FOCE) was used for modelling, and S-PLUS® 8.0 (Insigthful) was used for graphics and data handling. Evaluation of—and discrimination between—intermediate models was based on objective function values and standard graphical evaluation methods. In terms of objective function value, changes in this value were assumed to be chi-squared distributed (for nested models), and criteria for expanding the model were defined and used accordingly.
Toxicokinetics from the toxicology study in transgenic mice and PK/PD data from the pharmacology study was integrated to assess the relationship between pharmacokinetics and occupancy. […] This is consistent with other studies, observing higher clearance for high doses, due to saturation of the FcRN receptor (Hansen and Balthasar, 2002).

B1: humanized anti-C5aR antibody hAb-Q (antibody, human IgG4 S228P, kappa)
light: DVVMTQSPLSLPVTLGEPASISCRSSQSLVHSNGNTYLHWYLQKPGQSPQLLIYKVSNRFSGVPDRFSGSGSGTDFTLKISRVEAEDVGVYFCSQSTLVPLTFGQGTKLEIKRTVAAPSVFIFPPSDEQLKSGTASVVCLLNNFYPREAKVQWKVDNALQSGNSQESVTEQDSKDSTYSLSSTLTLSKADYEKHKVYACEVTHQGLSSPVTKSFNRGEC
heavy: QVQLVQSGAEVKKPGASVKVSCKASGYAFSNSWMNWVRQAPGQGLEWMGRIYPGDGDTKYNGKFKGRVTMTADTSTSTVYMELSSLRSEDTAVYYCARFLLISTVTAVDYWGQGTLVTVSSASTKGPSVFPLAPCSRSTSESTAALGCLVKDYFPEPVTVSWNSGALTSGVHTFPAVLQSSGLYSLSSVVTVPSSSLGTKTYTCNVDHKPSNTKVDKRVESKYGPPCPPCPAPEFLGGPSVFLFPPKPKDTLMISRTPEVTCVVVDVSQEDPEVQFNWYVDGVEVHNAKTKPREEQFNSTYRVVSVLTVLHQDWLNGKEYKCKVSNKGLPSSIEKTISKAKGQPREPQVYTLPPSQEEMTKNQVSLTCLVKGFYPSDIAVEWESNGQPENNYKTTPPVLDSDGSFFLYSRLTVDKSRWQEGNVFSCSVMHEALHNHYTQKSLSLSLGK
notes: IgG4 with the Ser228Pro mutation; also called antibody Q; anti-C5aR ab
Usually EC50 stands for the concentration giving half of the maximal effect. Broadly, the Kd is the constant that tells how readily two partners part at equilibrium. Read a high Kd as lower affinity. Consider B1, for which the binding result in assay [1] was “binds”. Moreover, the concentration giving a half-maximal response (EC50) in assay [2] was found to be 0.3 mg/L. In assay [3], this molecule returned a Kd of 0.175 mg/L.

(Values after patent US20110190477A1 (G2 INFLAMMATION, published 2011).)
